PMC9839326 (Science Advances, 2023)

Target: cytochrome f (Cyt f) of spinach Cyt b6f (spinach (Spinacia oleracea), UniProt P16013 36-320)
Assay: cryo-EM structure

Chain of cytochrome f (Cyt f) of spinach Cyt b6f (P16013 36-320): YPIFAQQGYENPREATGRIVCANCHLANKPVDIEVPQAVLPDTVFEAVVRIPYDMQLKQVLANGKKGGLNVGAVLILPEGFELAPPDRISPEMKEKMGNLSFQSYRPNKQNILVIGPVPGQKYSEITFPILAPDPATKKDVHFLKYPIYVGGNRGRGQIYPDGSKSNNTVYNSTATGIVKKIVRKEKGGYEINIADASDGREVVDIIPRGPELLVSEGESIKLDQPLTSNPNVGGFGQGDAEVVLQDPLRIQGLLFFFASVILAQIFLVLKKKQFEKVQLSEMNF

binding result: binds
B1: plastocyanin (PC) from spinach (natural protein)
chain: VEVLLGGGDGSLAFLPGDFSVASGEEIVFKNNAGFPHNVVFDEDEIPSGVDAAKISMSEEDLLNAPGETYKVTLTEKGTYKFYCSPHQGAGMVGKVTVN
